In one data set the test system is Oc1ccc(Cl)cc1O. Kind of data set: spectrophotometric oxidation assay, nonlinear regression. It counts as biochemical, Thermothelomyces thermophilus. The settings on record: 0.1 M sodium phosphate pH 7, 40°C, 440 nm, 0 to 5 mM substrate. The source says:
(§1) spectrophotometric oxidation assay, nonlinear regression on TtPPO

Substrate in data set [1]: Oc1cc(O)c2c(c1)O[C@H](c1ccc(O)c(O)c1)[C@@H](O)C2
The data set is described as above. Particulars: 0.1 M sodium phosphate pH 7, 40°C, 440 nm, 0 to 10 mM substrate (Km lies above tested range). Format: biochemical, Thermothelomyces thermophilus.
Source text: as §1

Substrate in data set [2]: Oc1ccc(O)cc1
The description is as above. The settings on record: 0.1 M sodium phosphate pH 7, 40°C, 480 nm, 0 to 70 mM substrate. It counts as biochemical, Thermothelomyces thermophilus.
Source text: as §1

Substrate in data set [3]: N[C@@H](Cc1ccc(O)c(O)c1)C(=O)O
The description is as above. It counts as biochemical, Thermothelomyces thermophilus. Particulars: 0.1 M sodium phosphate pH 7, 40°C, 475 nm, 0 to 7 mM substrate.
Source text: as §1

Substrate in data set [4]: Oc1ccccc1O
Described as above. Format: biochemical, Thermothelomyces thermophilus. Particulars: 0.1 M sodium phosphate pH 7, 40°C, 0 to 60 mM substrate.
Source text: as §1

Substrate in data set [5]: COc1cc(C=O)ccc1O
The description is as above. Format: biochemical, Thermothelomyces thermophilus. Particulars: 0.1 M sodium phosphate pH 7, 40°C, 0 to 5 mM substrate.
Source text: as §1

Substrate in the data set “purified protein”: COc1ccccc1O
Kind of data set: purified protein. Particulars: 0.1 M sodium phosphate pH 7, 40°C, 0 to 15 mM substrate.

Our source for the Km, kcat and kcat/Km values is PMC6238066, “Versatile Fungal Polyphenol Oxidase with Chlorophenol Bioremediation Potential: Characterization and Protein Engineering” (Applied and Environmental Microbiology, 2018).

A word on the kcat: it is the maximal rate divided by the concentration of active sites. By kcat/Km is commonly meant the second-order rate constant that governs catalysis at low substrate concentration. Regarding “TtPPO (Thermothelomyces thermophilus ATCC 42464)”, in the data set on Oc1ccc(Cl)cc1O, the Km is listed as 1.6 (0.1) mM, the turnover number (kcat) came to 5.69 s⁻¹ and the kcat/Km is 3490 M⁻¹ s⁻¹.

B1: TtPPO (Thermothelomyces thermophilus ATCC 42464) (protein)
chain: RCSSDAPPPAPVGDDLTEPKELTDLFEKAKKAVIDRLHEDEKALRARGEAPRCTADKLIFRREYGSLSKDERLAYVNAVKCLQSKPPRTPASVAPGARSRFDDFVVVHIQQTLDIHYSGIFQAWHRWFVYQYEKALRDECGYTGYQPYWDWPKYASAPQDSPLFNGDPYSLGGNGEYVPHDGPVIVPPEGVSGGNISLPAGVGGGFVRTGPFANMTVNLGPVGGLADTAPGPQGGLGYNPRGLKRDLGGAMNTRYANYTTVLRLLTQPDVDAFRTVSEGVPYTVEIGPHGGIHYTIGGDPGGDLFTSPGDPAFWVHHAQMDRVWATWQALGLLPPADGGDPDPARRYTDLGKGDYAHRTWQNSPPSPFAELSDVIDMGYAAPSTTIGAVMSTTEGELCYFYL
notes: secreted by Pichia pastoris X-33, glycosylated; IMAC
Take B1: the Km in data set [1] is recorded as 31.0 (12.9) mM; in data set [2] it was 54.4 (5.5) mM; in data set [3] it was 2.2 (0.6) mM; in data set [4], 27.0 (2.8) mM; in data set [5] it was 2.0 (0.1) mM; in the data set “purified protein”, 4.2 (0.6) mM. The kcat in data set [1] was determined as 40.5 s⁻¹; in data set [2], 1.69 s⁻¹; in data set [3], 0.108 s⁻¹; in data set [4], 2.19 s⁻¹; in data set [5], 1.92 s⁻¹; in “purified protein”, 2.91 s⁻¹. Also, the specificity constant (kcat/Km) in data set [1] was 1300 M⁻¹ s⁻¹; in data set [2] it was 31.7 M⁻¹ s⁻¹; in data set [3] it was 50 M⁻¹ s⁻¹; in data set [4] it was 81.7 M⁻¹ s⁻¹; in data set [5], 987 M⁻¹ s⁻¹; in “purified protein” it was 690 M⁻¹ s⁻¹.
